US20260167739A1 (PHANES THERAPEUTICS, published 2026)
Where a chain is given by its changes, count along the chain named.

T1: human 5T4 (32-355) tagged with poly-his at the C-terminus (ACROBiosystems, CAT #TPG-H52E5) (human, UniProt Q13641 32-355)
T1 construct: range 32-355; Bought protein; also called recombinant human 5T4; recombinant 5T4 Ser32-Ser355; not shown: C-terminal poly-his tag
T1 sequence (looked up): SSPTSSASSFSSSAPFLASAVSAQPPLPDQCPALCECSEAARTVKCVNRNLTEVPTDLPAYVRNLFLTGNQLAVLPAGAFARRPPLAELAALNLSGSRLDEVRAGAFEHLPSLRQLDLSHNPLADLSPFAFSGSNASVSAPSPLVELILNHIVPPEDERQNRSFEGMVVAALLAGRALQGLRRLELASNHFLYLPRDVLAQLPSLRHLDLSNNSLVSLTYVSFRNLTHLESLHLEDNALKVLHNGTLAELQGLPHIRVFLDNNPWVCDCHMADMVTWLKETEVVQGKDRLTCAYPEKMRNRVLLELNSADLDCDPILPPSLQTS

B1: L3F10-C (antibody, V domains shown)
VH: EVKLVESGGGLVNTGGSLKLSCAASGFTFSDYFMYWVRQTPDKRLEWVAYISNSGGNTYYPDTVKGRFTISRDNAKNTLYLQMSRLKSEDTAMYFCTRPRPYGGYYAGIYYAMDYWGQGTSVTVSS
VL: DIQMTQTTSSLSASLGDRVTISCRASQDISNYLNWYQQKPDGTVKLLIYYTSRLHSGVPSRFSGSGSGTDYSLTISNLEPEDIATYYCQQYSKLPLTFGAGTKLELK
notes: Mouse VH and VL fused to the constant regions of human IgG1 heavy chain and kappa light chain; also called chimeric version of L3F10
B2: L3E1-C (antibody, V domains shown)
VH: QVQLQQFGAELVKPGAAVKMSCKASGYTFTSYWITWVKQRPGQGLDWIGDIYPGGGSTNYHEKFKSKATLTVDTSSSTAYMQLSSLTSEDSAVYYCARGLRDFDYWGQGTTITVSS
VL: B1 VL with T8A, D28H, S30N, Y50S, Y71F, L96R, A100G, L106I
notes: Mouse VH and VL fused to human IgG1 heavy and kappa light constant regions; also called chimeric version of L3E1
B3: L1F2-C (antibody, V domains shown)
VH: QVHLQQSGAELVRPGTSVKVSCKASGYAFTNYVIEWVKQRPGQGLEWIGVINPGSGGTNYNENFKGKATLTADKSSSTAYMQLSSLTSEDSAVYFCARGTVELYAMDYWGQGTSVTVSS
VL: DIQMTQTTSSLSASLGDRVTISCRASQDISYYLNWYQQKPDGTVKLLISYTSRLHSGVPSRFSGSGSGTDYSLTISNLEQEDIATYFCQQDIKHPYTFGGGTELEIK
notes: Mouse VH and VL fused to human IgG1 heavy and kappa light constant regions; also called chimeric version of L1F2
B4: L1H7-C (antibody, V domains shown)
VH: QVQLQQSGPELVKPGASVKISCKASGYAFSSSWMNWVKQRPGKGLEWIGRIYPGNGNTNYNGKFKGKATLTADKSSSTAYMQLNSLTSEDSAVYFCASRFAYWGQGTLVAVSA
VL: DIVLTQSPASLAVSLGQRATISCRASKSVSTSGYSYMHWYQQKPGQPPKLLIYLASNLESGVPARFSGSGSGTDFTLNIHPVEEEDAATYYCQHSRELRTFGGGTKLEIK
notes: Mouse VH and VL fused to human IgG1 heavy and kappa light constant regions; also called chimeric version of L1H7
B5: L1D8-CR11-C (antibody, V domains shown)
VH: QVQLQQSGAELMKPGASLKLSCKATGYTFTGYWIEWVKQRPGHGLEWIGEILPGRSSTNYNERFKGKAIFTADTSSNTAYMQLSSLTTEDSAIYYCARGRRDFDYWGQGTTITVSS
VL: SIVMTQTPKFLPVSAGDRVTMTCKASQSVGNNVAWYQQKPGQSPKVLIYDASNRYTGVPDRFTGSGSGTDFTFTISSVQVEDLAVYFCQQYYSSPPTFGAGTKLELK
notes: Mouse VH and VL fused to human IgG1 heavy and kappa light constant regions; also called chimeric version of L1D8-CR11; LID8-CR11
B6: L1D8-CR21-C (antibody, V domains shown)
VH: B5 VH with Y32S
VL: B5 VL
notes: Mouse VH and VL fused to human IgG1 heavy and kappa light constant regions; also called chimeric version of L1D8-CR21; LID8-CR21
B7: L3D5-C (antibody, V domains shown)
VH: GVQLQQSGPELVKPGASVKISCKASGYTFTDFYMNWVKQSHGKSLEWIGDINPNNGVTTYNQKFKDKATLTVDKSSSTAYMELRSLTSEDSAVYYCATGAIHYGYDGYFDVWGAGTTVTVSS
VL: DIVMTQSPATLSVTPGDRVSLSCRASQSISDYLHWYQQKSHESPRLLIKYASQSISGIPSRFSGSGSGSDFTLSINSVEPEDVGVYYCQNGHSFPLTFGAGTKLELK
notes: Mouse VH and VL fused to human IgG1 heavy and kappa light constant regions; also called chimeric version of L3D5
B8: L2B11-C (antibody, V domains shown)
VH: EVKLVESEGGLVQPGSSMKLSCTASGFTFSDYYMAWVRQVPEKGLEWVGNINYDGSRTYYLDSLKSRFIISRDNGKNILYLQMSSLKSEDTATYYCAREGDNYGNSHYAMDYWGQGTSVTVSS
VL: DVLMTQTPLSLPVSLGDQASISCRSSQSFVHSNGNTYLEWYLQKPGQSPKLLIYKVSNRFSGVPDRFTGSGSGTDFTLKISRVEAEDLGVYYCFQGSHVPLTFGAGTRLELK
notes: Mouse VH and VL fused to human IgG1 heavy and kappa light constant regions; also called chimeric version of L2B11
B9: S3C7-C (antibody, V domains shown)
VH: EVKLVESGGGLVNTGGSLKLSCAASGFNFSHYYMYWVRQTPEKRLEWVAYIGNSGGSTYNPDTVKGRFTISRDNAKNTLYLQMSRLKSEDTAIYYCARQNYYSGSFYFDSWGQGTTITVSS
VL: NIVLTQSPTSMSMSVGERVTLSCKASENVGTYVSWYQQKPEQSPKLLIYGKSNRYTGVPDRFTGSGSAPDFTLTISSVQAEDLADYYCGQSYSFPFTFGTGTKLEIK
notes: Mouse VH and VL fused to human IgG1 heavy and kappa light constant regions; also called chimeric version of S3C7
B10: S2F4-C (antibody, V domains shown)
VH: EVQLVESGGGLVKPGGSLKLSCAASGFTFSDYGMHWVRQAPEKGLEWIAYISFGSSTIYYADTVKGRFTISRDNAKNTLFLQMTSLRSEDTAMYYCARTHGYYRSWFAYWGQGTLVTVSA
VL: DIVLTQSPASLAVSLGQRATISCRASQSVSTSSYSYMNWYQQKPGQPPKLLIKYASNLESGVPARFSGSGSGTDFTLNIHPVEEEDTATYYCQHSWEIPLTFGAGTKLELK
notes: Mouse VH and VL fused to human IgG1 heavy and kappa light constant regions; also called chimeric version of S2F4
B11: L1C7-C (antibody, V domains shown)
VH: EFQLQQSGPEVVKPGASVKISCKASGYSFTVYNMNWVKQSNGKSLDWIGVINPNYGTVTYNQKFKGKATLTVDQSSSTAYMQLNSLSSEDSAVYYCATTATWGQGTTLTVSS
VL: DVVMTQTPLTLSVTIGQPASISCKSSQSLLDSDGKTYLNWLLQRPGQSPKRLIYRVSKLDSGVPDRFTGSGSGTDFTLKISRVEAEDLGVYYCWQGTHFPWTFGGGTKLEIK
notes: Mouse VH and VL fused to human IgG1 heavy and kappa light constant regions; also called chimeric version of L1C7

target: T1, human 5T4 (32-355) tagged with poly-his …; assay: ELISA, 5T4-His coated on the plate
From the text: FIGS. 1A-IC show the binding of purified chimeric anti-5T4 mAbs (VH and VL regions of mouse mAb fused to the constant regions of human IgG1 heavy chain and kappa light chain, respectively) to immobilized recombinant 5T4 in an ELISA assay. The antigen was human 5T4 (32-355) tagged with poly-his at the C-terminus (ACROBiosystems, CAT #TPG-H52E5). L3F10-C, the chimeric version of L3F10; the same naming rule is used for the rest of the antibodies. Isotype Control (IgG1), a negative control antibody.
Purified chimeric mAbs were tested in an ELISA assay for their ability to bind to immobilized 5T4. Recombinant human 5T4 (ACROBiosystems, CAT #TPG-H52E5) in PBS was coated onto a 96-well plate (Corning, CAT #3361) at 4° C. overnight. The next day, plates were blocked using 5% BSA in TBST for 1 hour at room temperature and washed using TBST. Antibody samples at various concentrations in 5% BSA in TBST were added to the wells and incubated for 1 hour at room temperature. Plates were washed with TBST and bound antibody was labeled using mouse anti-human IgG Fc HRP (Thermo, CAT #H10007) for 1 hour at room temperature. Plates were washed again using TBST, and then ELISAs were developed using 1 Step Ultra TMB detection reagent (Thermo, CAT #34028) for 4 minutes before being quenched with ELISA stop solution (Thermo. CAT #SS04). Plates were quantified by measuring absorbance at 450 nm by plate reader.

Binding result, binds:
B1
B2
B3
B4
B5
B6
B7
B8
B9
B10
B11
